Reference: the supplement of paper PMC9170038

Test system: MS2 coat protein
Assay: apparent KD of MS2 coat protein; designed switch direction (-1 OFF switch, 1 ON switch): -1; higher = weaker reporter binding
Procedure, shortened: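 RNA switches sharing common flanks were transcribed by stalled E. coli RNA polymerase on Illumina chips. A doubling series of SNAP-549-labelled MS2 coat protein, from 0.7 or 1.5 nM to 3 µM, was applied in Tris-HCl pH 7.5 buffer with KCl, MgCl2, BSA, DTT, tRNA and Tween-20. Each step lasted 0.8–1.5 h at the bottom of the series and 10–20 min at the top. Normalised cluster fluorescence was curve-fitted, giving apparent KD as the per-design median over clusters.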

[1] = input ligand: microRNA oligo, concentration not stated
[2] = Eterna round: R95, input ligand: microRNA oligo, concentration not stated
[3] = Eterna round: R95, input ligand: FMN 200 uM
[4] = Eterna round: R95, input ligand: none

Sequence	apparent KD of MS2 coat protein (input ligand: FMN 200 uM) [nM]	apparent KD of MS2 coat protein [1] [nM]	apparent KD of MS2 coat protein (input ligand: none) [nM]	apparent KD of MS2 coat protein [2] [nM]	apparent KD of MS2 coat protein [3] [nM]	apparent KD of MS2 coat protein [4] [nM]
ACAUGUUGCGCAGGAUAUGAGACACAUGAGGAUCACCCAUGUGGUUACAUGUCUUACCAAGCGUCUCAGAAGGGUGUGAACAUG [Ex NG2 #33] (Eterna round: R96, puzzle: Exclusion NG 2)	36.4	20.3	24.7	–	–	–
ACAUGUUGUCCAUGAUAUUACAUGAGGAUCACCCAUGUUAUUGCGAUUUUGAUGUGUAAGUUUGUUGCUCGUCUUAU [JR_STOV1_Sub062] (Eterna round: R97, puzzle: Sensor, turn-off variant 1)	29.6	–	32.6	–	–	–
ACAUUGCGAGGAUAUACAUGAGGAUCACCCAUGUGGUAGUGGAUACGGUAGGGCUAGUGUAGAAGGUGUUAUGA [EX3 #15] (Eterna round: R97, puzzle: Exclusion 3)	98.8	–	132	–	–	–
ACAUUGCUAGGAUAUCGCGGUAAGGACAUGAGGAUCACCCAUGUGGUGCCGUGGGAGGCCCGAGAAGGAGCGACCU [Maveonle] (puzzle: Exclusion 5)	–	–	–	18.1	–	–
ACCAUGUAAGGAUAUGGUGGCUGUGAACAGGCCUGAUAAAUCUAGAAGGUACAUGAGGAUCACCCAUGUGAUGA [Eternabot (L2) Solution 84] (Eterna round: R97, puzzle: Exclusion 4)	54	–	32.7	–	–	–
ACCCUGUGAGGAUAUUGUGAGCAGACACUUGAGUGCAAUCAUAAGAAGGUACAUGAGGAUCACCCAUGUGAAAC [Eternabot (L1) Solution 90] (Eterna round: R97, puzzle: Exclusion 4)	30.4	–	38.7	–	–	–
ACCUAUGAGGAGGAUAUACAGUGCGAAAGGACAGUAGAAGGCUUCACAUGAGGAUCACCCAUGUCGAUAAGCGA [EX6 #83] (Eterna round: R97, puzzle: Exclusion 6)	30.2	–	21.5	–	–	–
ACCUAUGAGGAGGAUAUACGGUGCGAAAGGAAGGUAGAAGGCUUCACAUGAGGAUCACCCAUGUCGAUAAGCGA [EX6 #85] (Eterna round: R97, puzzle: Exclusion 6)	27.7	–	23.3	–	–	–
ACCUCACAUGAGGAUCACCCAUGUUAGGAUAUCUCGGUGCCCUGCAGGCAGUGGCACCAGAGAAGGAACGUGCA [Anbearqu] (puzzle: Exclusion 1)	–	–	–	17.2	–	–
ACGACUGGAGGAUAUGCUCUGGGAGCGAUCGUAUAAGCAGUACUUGAGGAUCACCCAAGUAGAAGGUCAGCUCG [Riorus] (Eterna round: R97, puzzle: Exclusion 2)	140	–	37.6	–	–	–
ACGAUGACUGAAAAGUGUAAACUGACAUGAGGAUCACCCAUGUAGGAUAUGGCUACGAAAAGUAGUCAGAAGGGCAUGUCAUCA [Omei Exc(NG) 3 Av10] (Eterna round: R96, puzzle: Exclusion NG 3)	14.3	13.4	17.1	–	–	–
ACGAUGAUCGAAAAGUGUAAACUGACAUGAGGAUCACCCAUGUAGGAUAUGGCUACGAAAAGUAGUCAGAAGGGCAUGUCAUCA [Omei Exc(NG) 3 Av11] (Eterna round: R96, puzzle: Exclusion NG 3)	51.3	34.6	47.9	–	–	–
ACGCAUUGCCUUUGGUAGUGCGUAACAUGAGGAUCACCCAUGUAGGAUAUGGUAGGCUUUGCUUACCAGAAGGACAUAAUAAAU [Mat - Exclusion NG 3 - Mod of JL - D2] (Eterna round: R96, puzzle: Exclusion NG 3)	52.7	25.1	28.8	–	–	–
ACGCCACAUGAGGAUCACCCAUGUGAGGAUAUGGCCUGUUUGGCGUGUGCUGGCUCUGUCAGAAGGCGCGUGGG [salish99_ex1_r4_039] (Eterna round: R97, puzzle: Exclusion 1)	45.4	–	42.3	–	–	–
ACGCCUAUAGUGAGGAUAUUGCGGGUAGGUAUUUGCAAGAAGGCACUUGAGGAUCACCCAAGUGAAGAAGUUGC [Geusra] (Eterna round: R97, puzzle: Brourd's mod of Exclusion 4)	14.7	–	15.1	–	–	–
ACGUCCCAAGUCAGGAUAUAGGCCGGACAAAGGGACUAGAAGGGACAUGAGGAUCACCCAUGUGGGCAAAAGAC [Terarace] (puzzle: Brourd's mod of Exclusion 4)	–	–	–	29.4	29.4	32

Sequence	apparent KD of MS2 coat protein (input ligand: FMN 200 uM) [nM]	apparent KD of MS2 coat protein [1] [nM]	apparent KD of MS2 coat protein (input ligand: none) [nM]	apparent KD of MS2 coat protein [2] [nM]	apparent KD of MS2 coat protein [3] [nM]	apparent KD of MS2 coat protein [4] [nM]
ACUAGAUGAGGAUAUGCAUAUUUUCGUGUUCUUCUAGAUUAACAUGAGGAUCACCCAUGUAGAAGGCGUCAUUU [Exclusion 2 - 16] (puzzle: Exclusion 2)	–	–	–	15.7	–	–
ACUAGAUGAGGAUAUGCAUAUUUUCGUGUUCUUCUAGGUUAACAUGAGGAUCACCCAUGUAGAAGGCGUCUAUG [Exclusion 2 - 24] (puzzle: Exclusion 2)	–	–	–	19.3	–	–
ACUAGCUUUUUGCAUUUUAGGUUUGUUGCUUCGUAUGUAACAUGAGGAUCACCCAUGUAUUACUGAUGUCGUCGUUU [JR_SV3TOV2_Sub090] (Eterna round: R96, puzzle: Sensor v3, turn-off variant 2)	18.5	15.5	20.3	–	–	–
ACUAGCUUUUUGCAUUUUAGGUUUGUUGCUUCGUAUGUAACAUGAGGAUCACCCAUGUAUUACUGAUGUCGUCGUUU [JR_SV3TOV2_Sub090] (puzzle: Sensor v3, turn-off variant 2)	–	–	–	16.5	18.4	18.5
ACUCGACAUGAGGAUCACCCAUGUGAGGAUAUGGCCUGUAUGGCGUGAGCUGAAUCAAUCAGAAGGCGCGUGGG [salish99_ex1_r4_053] (Eterna round: R97, puzzle: Exclusion 1)	105	–	44.8	–	–	–
ACUCGUAACUAGGAUAUCCGAAAUAAACGAGGAGGAGAAGGAGUUACAUGAGGAUCACCCAUGUGAUAUAAAGA [Edtisoed] (puzzle: Exclusion 6)	–	–	–	15.3	47	17.6
ACUGGUGCAGGAUAUACAUUCGUGCUUCGGCACGUAAGAUCACAUGAGGAUCACCCAUGUAGAAGGGCACCAGU [E2/5-D2] (Eterna round: R97, puzzle: Exclusion 2)	642	–	81.6	–	–	–
ACUGUAGAAGGAUAUGCUUCGACUCACAUGAGGAUCACCCAUGUCUUCGUGCAGUCGUCUGCAGAAGGUCUCCAGU [EX5 C.7] (Eterna round: R97, puzzle: Exclusion 5)	1050	–	956	–	–	–
ACUUACCAUGUCAGGAUAUGUACUUAGAACGCGAUGCAGAAGGGACAUGAGGAUCACCCAUGUAAUGUCUGAUA [Eternabot (L2) Solution 2] (Eterna round: R97, puzzle: Brourd's mod of Exclusion 4)	51.6	–	21.1	–	–	–
ACUUACUGAGGAUAUACAUAGAUUUACAUGAGGAUCACCCAUGUUCCUCUUUGUAUAAAUGUAGAAGGCAGAAGAU [Mat - Exclusion 5 - JL Mod - D59] (Eterna round: R97, puzzle: Exclusion 5)	183	–	96.5	–	–	–
ACUUAUUGAGGAUAUACAUUAAAAUACAUGAGGAUCACCCAUGUUCUUCAAUGUAUAUAUGUAGAAGGCAGAAGAA [JL-ex5-4.29 Malcolm mod] (Eterna round: R97, puzzle: Exclusion 5)	57.6	–	22.2	–	–	–
AGAAAAGACCUAGGAUAUACCCAGUGGGUAGAGGGUCAUAAUAAUAAAACAUGAGGAUCACCCAUGUAGAAGGAGGGAAAGAAG [Biriusdibe] (Eterna round: R96, puzzle: Exclusion NG 2)	58.1	47.1	63.2	–	–	–
AGAAAUGCCCAUGGCCACAAGCUUUCUGCUUGUCUUACUACAUGAGGAUCACCCAUGUAACAUGGGCUCCUGAUAAU [Enzainge] (puzzle: Sensor v3, turn-off variant 2)	–	–	–	10.4	13.2	11.4
AGAAAUGCCCAUGGCCACAAGCUUUUCGCUUGUCUUACUACAUGAGGAUCACCCAUGUAACAUGGGCUCCUGAUAAU [Resoriraqu] (puzzle: Sensor v3, turn-off variant 2)	–	–	–	11	12.5	12
AGAAGACAUGAGGAUCACCCAUGUAAGGAUAUCGAAGGUAAGAGAGGAAAGAAGUUAACGAGAAGGUACAGGUG [JR_Exclu1_Sub097] (puzzle: Exclusion 1)	–	–	–	123	101	116
